Among the data in patent US20230183355A1 (UNIVERSITY OF WESTERN ONTARIO, published 2023) are Kd values, retold here.

For orientation: Kd means the constant that tells how readily two partners part at equilibrium.

Test [1] addresses T1, human CD11d/CD18 expressed on JY cells (human, UniProt Q13349 18-1161; P05107 23-769).
T1 construct: whole, on cells
The test can be described thus: FACS on JY cells expressing human CD11d/CD18; non-linear regression, one-site binding model. How it is done: (§1) Binding affinity of the exemplified CD11d antibodies of Table 2 were determined, for both human and rat CD11d, by Fluorescence Activated Cell Sorting (FACS) analysis. JY cells expressing human CD11d/CD18 or JY cells transfected with full-length rat CD11d are suspended in FACS buffer with goat IgG (1 mg/ml). The cell solution is added to wells of 96-well round-bottom plates at a density of 4.0×10⁴ cells in 50 μL solution. Each of the exemplified CD11d antibodies of Table 2 (25 μL) or isotype control antibody (25 μL) is added to a respective well at 1:3 dilutions at final concentrations ranging between 4.6 ng/mL to 10 μg/mL. The plates are incubated on ice for 30 minutes, after which 200 μL of FACS buffer is added, plates are centrifuged at 2000 rpm for 3 minutes, and the liquid is discarded. Cells are re-suspended with 50 μL of a phycoerythrin-conjugated antibody (Jackson ImmunoResearch p/n. 709-116-149) at a 1:150 dilution and incubated on ice for 20 minutes. FACS buffer is added (200 μL) to each well and plates are spun at 2000 rpm for 3 minutes. The liquid is discarded, cells are washed with 200 μL FACS buffer, re-suspended in 120 μL of 1% paraformaldehyde in PBS, and transferred to 96-well flat-bottom plates.
(§2) Stained cells are analyzed by flow cytometry with the gate set on the isotype control antibody. The specific percent gated is calculated as [% gated (test antibody)−% gated (isotype control antibody)]. Kd determinations were made based on a non-linear regression, one-site binding model. Following procedures essentially as described above, binding affinities of the exemplified CD11d antibodies of Table 2 to human and rat CD11d were obtained.

For test [2], the target named is T2, full-length rat CD11d on transfected JY cells (rat, UniProt Q9QYE7 20-1161).
T2 construct: whole, on cells
T2 sequence (looked up): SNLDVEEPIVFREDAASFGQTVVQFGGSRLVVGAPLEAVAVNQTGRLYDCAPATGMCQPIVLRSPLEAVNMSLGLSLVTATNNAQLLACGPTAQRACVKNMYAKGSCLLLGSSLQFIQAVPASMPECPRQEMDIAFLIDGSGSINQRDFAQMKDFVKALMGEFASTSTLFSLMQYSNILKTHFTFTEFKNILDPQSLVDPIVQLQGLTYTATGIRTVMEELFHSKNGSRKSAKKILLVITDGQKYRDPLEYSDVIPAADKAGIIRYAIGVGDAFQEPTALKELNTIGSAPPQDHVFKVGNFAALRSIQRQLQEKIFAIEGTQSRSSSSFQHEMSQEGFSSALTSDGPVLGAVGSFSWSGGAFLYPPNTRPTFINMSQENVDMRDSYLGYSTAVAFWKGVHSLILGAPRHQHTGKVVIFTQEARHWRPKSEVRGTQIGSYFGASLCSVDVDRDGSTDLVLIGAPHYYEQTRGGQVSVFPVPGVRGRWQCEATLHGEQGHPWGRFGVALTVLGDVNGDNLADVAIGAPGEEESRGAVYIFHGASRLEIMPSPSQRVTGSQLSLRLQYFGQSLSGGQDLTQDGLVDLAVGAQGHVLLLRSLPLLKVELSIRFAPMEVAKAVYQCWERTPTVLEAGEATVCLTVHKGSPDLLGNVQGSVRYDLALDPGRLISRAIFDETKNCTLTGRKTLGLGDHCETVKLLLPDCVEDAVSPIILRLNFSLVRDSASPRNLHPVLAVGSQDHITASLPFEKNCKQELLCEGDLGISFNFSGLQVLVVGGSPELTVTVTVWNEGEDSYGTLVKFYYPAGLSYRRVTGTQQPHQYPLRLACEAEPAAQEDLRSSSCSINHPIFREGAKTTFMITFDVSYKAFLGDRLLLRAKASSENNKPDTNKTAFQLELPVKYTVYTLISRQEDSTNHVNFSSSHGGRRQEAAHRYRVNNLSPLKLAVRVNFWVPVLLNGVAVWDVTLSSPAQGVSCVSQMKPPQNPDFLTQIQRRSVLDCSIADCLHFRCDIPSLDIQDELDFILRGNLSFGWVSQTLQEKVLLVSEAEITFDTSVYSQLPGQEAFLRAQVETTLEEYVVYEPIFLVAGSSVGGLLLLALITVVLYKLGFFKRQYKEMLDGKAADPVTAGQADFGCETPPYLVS
The test can be described thus: FACS on JY cells transfected with full-length rat CD11d; non-linear regression, one-site binding model. On the procedure:
as §1, §2

T1 sequence (Q13349 18-1161, chain 1 of 2): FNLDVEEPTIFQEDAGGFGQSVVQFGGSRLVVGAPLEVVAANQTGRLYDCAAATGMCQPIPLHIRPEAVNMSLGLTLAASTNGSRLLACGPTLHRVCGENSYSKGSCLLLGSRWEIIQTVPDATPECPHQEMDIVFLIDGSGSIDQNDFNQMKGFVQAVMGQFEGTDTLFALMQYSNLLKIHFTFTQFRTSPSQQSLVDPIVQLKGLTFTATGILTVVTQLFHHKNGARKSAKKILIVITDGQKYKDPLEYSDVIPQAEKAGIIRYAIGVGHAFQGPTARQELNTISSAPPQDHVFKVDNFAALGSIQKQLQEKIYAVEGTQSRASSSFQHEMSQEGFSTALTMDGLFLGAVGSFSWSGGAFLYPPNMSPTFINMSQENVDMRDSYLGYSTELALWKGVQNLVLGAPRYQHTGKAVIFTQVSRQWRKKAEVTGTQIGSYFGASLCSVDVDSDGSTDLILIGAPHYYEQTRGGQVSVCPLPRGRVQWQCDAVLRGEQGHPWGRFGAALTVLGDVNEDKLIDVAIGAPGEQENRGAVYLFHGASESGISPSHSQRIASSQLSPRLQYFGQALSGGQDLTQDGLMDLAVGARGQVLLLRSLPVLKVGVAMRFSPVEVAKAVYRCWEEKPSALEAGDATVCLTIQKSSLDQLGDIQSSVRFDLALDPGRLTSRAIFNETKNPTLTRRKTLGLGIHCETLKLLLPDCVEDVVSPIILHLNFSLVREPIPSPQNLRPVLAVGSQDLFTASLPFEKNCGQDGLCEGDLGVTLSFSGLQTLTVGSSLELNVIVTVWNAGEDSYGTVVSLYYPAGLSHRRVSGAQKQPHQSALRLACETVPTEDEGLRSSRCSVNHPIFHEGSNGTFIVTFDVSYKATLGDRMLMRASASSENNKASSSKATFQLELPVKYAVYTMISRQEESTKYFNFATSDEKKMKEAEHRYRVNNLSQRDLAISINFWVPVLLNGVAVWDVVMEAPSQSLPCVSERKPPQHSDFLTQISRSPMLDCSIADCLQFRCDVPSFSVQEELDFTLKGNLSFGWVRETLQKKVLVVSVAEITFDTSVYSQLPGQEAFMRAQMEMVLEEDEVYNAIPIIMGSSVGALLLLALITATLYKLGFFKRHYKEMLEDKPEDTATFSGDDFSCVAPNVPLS
T1 sequence (P05107 23-769, chain 2 of 2): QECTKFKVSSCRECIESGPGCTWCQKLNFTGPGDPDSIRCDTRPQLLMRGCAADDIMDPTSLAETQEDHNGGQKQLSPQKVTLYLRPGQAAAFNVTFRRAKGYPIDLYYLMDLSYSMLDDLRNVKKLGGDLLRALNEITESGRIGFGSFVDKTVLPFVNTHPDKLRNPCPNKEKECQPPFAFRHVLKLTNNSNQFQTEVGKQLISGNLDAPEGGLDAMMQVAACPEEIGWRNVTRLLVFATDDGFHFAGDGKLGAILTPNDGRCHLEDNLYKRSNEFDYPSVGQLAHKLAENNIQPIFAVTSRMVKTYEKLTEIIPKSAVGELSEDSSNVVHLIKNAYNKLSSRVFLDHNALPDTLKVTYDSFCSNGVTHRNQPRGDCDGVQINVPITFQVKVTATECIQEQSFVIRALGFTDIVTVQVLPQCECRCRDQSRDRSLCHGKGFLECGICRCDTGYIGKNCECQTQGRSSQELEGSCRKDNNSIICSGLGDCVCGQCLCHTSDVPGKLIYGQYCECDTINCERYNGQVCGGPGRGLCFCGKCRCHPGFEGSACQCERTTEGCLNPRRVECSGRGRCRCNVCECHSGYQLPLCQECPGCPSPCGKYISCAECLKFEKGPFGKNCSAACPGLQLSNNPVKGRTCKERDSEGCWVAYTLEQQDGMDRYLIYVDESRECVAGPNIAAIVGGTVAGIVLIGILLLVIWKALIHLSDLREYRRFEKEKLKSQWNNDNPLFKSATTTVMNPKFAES

B1: Exemplified Antibody 1 (antibody, human IgG4 S228P, kappa, F234A L235A, V domains shown)
VH: QVQLVQSGAEVKKPGASVKVSCKASGYTFTDYNMHWVRQAPGQGLEWMGYIYPYNGDTGYNQNFKSRVTMTRDTSTSTVYMELSSLRSEDTAVYYCARGLIYYGYLNVAMDSWGQGTLVTVSS
VL: DIQMTQSPSSLSASVGDRVTITCRASQSIGTRIHWYQQKPGKAPKLLIYFASESISGVPSRFSGSGSGTDFTLTISSLQPEDFATYYCQQSKIWPTTFGGGTKLEIKR
notes: Humanized antibody, full LC (kappa) and HC (IgG4)
With B1, the Kd in test [1] is 0.436 nM; in test [2], 1.45 nM.

B2: Exemplified Antibody 5 (antibody, human IgG4 S228P, kappa, F234A L235A, V domains shown)
VH: QVQLVQSGAEVKKPGASVKVSCKASGYTFTDYNMHWVRQAPGQGLEWMGYIYPYSGDTGYNQNFKSRVTMTRDTSTSTVYMELSSLRSEDTAVYYCARGLIYYGYLNVAMDSWGQGTLVTVSS
VL: DIQMTQSPSSLSASVGDRVTITCRASESIGTRIHWYQQKPGKAPKLLIYFASESISGVPSRFSGSGSGTDFTLTISSLQPEDFATYYCQQSKIWPTTFGGGTKLEIKR
notes: as for B1
For the molecule B2, the figures for the equilibrium dissociation constant (Kd) in test [1] and in test [2] were 0.344 nM and 1.18 nM, respectively.

B3: Exemplified Antibody 4 (antibody, human IgG4 S228P, kappa, F234A L235A, V domains shown)
VH: QVQLVQSGAEVKKPGASVKVSCKASGYTFYDYNMHWVRQAPGQGLEWMGYIYPYNGDTGYNQNFKSRVTMTRDTSTSTVYMELSSLRSEDTAVYYCARGLIHYGYLNVAMDSWGQGTLVTVSS
VL: DIQMTQSPSSLSASVGDRVTITCRASRSIGTRIHWYQQKPGKAPKLLIYFASGSISGVPSRFSGSGSGTDFTLTISSLQPEDFATYYCQQSKIFPTTFGGGTKLEIKR
notes: as for B1
Take B3: the Kd in test [1] was determined as 0.333 nM; in test [2] it was 0.247 nM.

B4: Exemplified Antibody 2 (antibody, human IgG4 S228P, kappa, F234A L235A, V domains shown)
VH: QVQLVQSGAEVKKPGASVKVSCKASGYTFGDYNMHWVRQAPGQGLEWMGYIYPYNGDTGYNQNFKSRVTMTRDTSTSTVYMELSSLRSEDTAVYYCARGLVHYGYLNVAMDSWGQGTLVTVSS
VL: DIQMTQSPSSLSASVGDRVTITCRASRSIGTRIHWYQQKPGKAPKLLIYFASGSISGVPSRFSGSGSGTDFTLTISSLQPEDFATYYCQQSKIFPTTFGGGTKLEIKR
notes: as for B1
For the molecule B4, the results for the dissociation constant Kd in test [1] and in test [2] were 0.303 nM and 0.133 nM, respectively.

B5: Exemplified Antibody 3 (antibody, human IgG4 S228P, kappa, F234A L235A, V domains shown)
VH: QVQLVQSGAEVKKPGASVKVSCKASGYTFTDYNMHWVRQAPGQGLEWMGYIYPYSGDTGYNQNFKSRVTMTRDTSTSTVYMELSSLRSEDTAVYYCARGLIYYGYLNVAMDSWGQGTLVTVSS
VL: DIQMTQSPSSLSASVGDRVTITCRASQSIGTRIHWYQQKPGKAPKLLIYFASESISGVPSRFSGSGSGTDFTLTISSLQPEDFATYYCQQSKIGPTTFGGGTKLEIKR
notes: as for B1
Regarding B5, the values for the equilibrium dissociation constant (Kd) in test [1] and in test [2] were 0.304 nM and 0.677 nM, respectively.
